According to patent US20240358731A1, “SUMO PATHWAY AS AN OXYGEN SENSOR RELEVANT TO THE PATHOPHYSIOLOGY OF PULMONARY ARTERY HYPERTENSION AND CARDIAC ARRHYTHMIA” (Northeastern University, priority 2023, published 2024):

Target: T1, Kir2.1-mediated IK1 current (Rattus norvegicus, UniProt Q64273)
T1 construct: endogenous in cells; host or cells: rat ventricular cardiomyocytes (RVCMs)
T1 sequence (Q64273 1-427): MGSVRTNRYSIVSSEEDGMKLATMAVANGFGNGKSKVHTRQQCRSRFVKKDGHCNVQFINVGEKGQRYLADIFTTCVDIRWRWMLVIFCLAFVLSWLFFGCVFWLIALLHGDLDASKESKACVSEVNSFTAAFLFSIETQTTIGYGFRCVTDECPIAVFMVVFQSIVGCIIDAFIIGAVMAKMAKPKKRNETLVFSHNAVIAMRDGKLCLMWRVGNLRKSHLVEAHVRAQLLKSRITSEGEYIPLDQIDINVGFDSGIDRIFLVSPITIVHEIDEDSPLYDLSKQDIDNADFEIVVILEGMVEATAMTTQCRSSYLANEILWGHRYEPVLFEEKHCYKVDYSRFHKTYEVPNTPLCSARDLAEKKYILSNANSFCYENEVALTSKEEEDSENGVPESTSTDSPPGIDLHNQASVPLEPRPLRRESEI
Assay: Whole-cell patch-clamp of IK1 in rat ventricular cardiomyocytes under acute hypoxia
Type: cell-based
Details: for effect on hypoxic inhibition of IK1: ambient O2 to 2% O2, agent in pipette (SENP1 2 μM, SUMO1 1 μM, diC8-PIP2) or pretreatment (TAK981)
Protocol: IK1 in rat ventricular cardiomyocytes studied by whole-cell patch-clamp. Hypoxia was a drop in O2 from ambient levels to 2%, measured at the cell. The time-course of hypoxic-inhibition was studied by recording the magnitude of IK1 every second. Cells were studied with the following pipette solutions: control, SUMO1 (1 μM) or SENP1 (2 μM). IK1 was blocked by the addition of 3 mM Ba^2+. […] Left, representative current sweeps; right, a representative time course showing the kinetics of hypoxic inhibition in cardiomyocytes studied with control pipette solution. The inhibition is precluded by including SENP1 (2 μM, magenta) in the recording pipette. The reverse ramp recording protocol is inset. […] SENP1 augments IK1 and protects the current from hypoxia. Data are from 8-10 RVCMs per group, **** P<0.0001, paired, two-tailed Student's […]. […] Representative data are shown with DAPI labeled nuclei and PLA interactions. Summary data are obtained from multiple experiments each with multiple fields of view containing 20-30 nuclei. The scale bar is 10 μm.
To knockdown Kir2.1 expression, RVCMs were transduced with lentiviral particles carrying cGFP and shRNA targeting KCNJ2-mRNA for the channel. Kir2.1 knockdown cells (Kir2.1kd-CMs) were identified by expression of cGFP. Cells were studied with control pipette solution, or with pipette solutions containing purified SUMO1 (1 μM) or SENP1 (2 μM). Where indicated, the control pipette solution contained diC8 PIP2. Paired patch-clamp data were analyzed by Students t-test; ***, P<0.01. […] Kir2.1kd-CMs are identified by expression of GFP (inset, scale bar=10 μm). […] The arrow indicates the change in current-magnitude between exposure to ambient O2 and 2% O2 in the same cell. Right, Concentration-response curve showing that including diC8-PIP2 in the pipette opposes hypoxic-inhibition of IK1 in control RVCMs and RVCMs expressing the scrambled shRNA. The hypoxic-response is diminished in Kir2.1kd-CMs. Data are mean±s.d. for 7-8 cells per condition. […] Current inhibition is diminished when SENP1 is included in the recording pipette and is not observed when SUMO-insensitive Kir2.1-K49Q channels are studied. Data are mean±s.d. for 6 cells per condition.
Hypoxic-inhibition of Kir2.1 in cardiomyocytes via SUMOylation. We studied the effects of acute hypoxia on IK1 in rat ventricular cardiomyocytes (RVCMs) by whole cell patch-clamp recording. […] Both the hypoxia-sensitive and insensitive components of the current were blocked by Ba^2+ (3 mM), consistent with the known role of Kir2 channels in mediating IK1 (FIG. 1a). To determine if SUMOylation mediates the hypoxic inhibition of IK1 we introduced purified SENP1 (2 μM) to the cytosol via the recording pipette. […] Both the SUMO1 and hypoxia-mediated inhibition of IK1 remained stable throughout the remainder of the experiment (up to 10 mins). […] Next, we visualized and quantified the interactions between native Kir2.1 and SUMO1 in RVCMs using the proximity-ligation association (PLA) assay with antibodies we validated in heterologous cells by Western blot. […] The validated Kir2 antibodies were paired with SUMO1 antibodies that we have tested and utilized before. Under control conditions, interactions were observed between Kir2.1 and SUMO1, but not between Kir2.2 or Kir2.3 and SUMO1. […] Although cardiomyocytes are typically cultured at 21% O2, the O2-level in the myocardium is estimated to be in the range of 5-10% O2, under physiological conditions.
Hypoxic-inhibition of IK1/Kir2.1 is reduced by diC8-PIP2 in a concentration-dependent manner. We have shown that adding the exogenous, soluble PIP2 analog diC8-PIP2 into the patch-pipette opposes hypoxic-inhibition of IK1 (FIG. 4). […] As before, the effects of hypoxia were ameliorated by SENP1 (2 μM) and were not observed in the SUMO and hypoxia insensitive Kir2.1-K49Q channels (FIG. 4D).

Molecule | effect on hypoxic inhibition of IK1 | decrease in IK1 (SUMO1 1 μM in recording pipette) [%] | increase in IK1 (purified SENP1 2 μM via recording pipette, mean±S.D.) [%]
Cc1sc(C(=O)c2cncnc2N[C@@H]2C[C@H](COS(N)(=O)=O)[C@@H](O)C2)cc1[C@@H]1NCCc2ccc(Cl)cc21 [TAK981, Subasumstat] | precludes hypoxic inhibition of Kir2 currents |  | 
SUMO1: purified SUMO1 (small ubiquitin-related modifier) protein introduced via the recording pipette or co-expressed | hypoxia-sensitive component of the current was abolished | 48±8 | 
SENP1: purified deSUMOylating enzyme (SUMO specific protease) introduced via the recording pipette or expressed (protein, UniProt Q9P0U3 1-644, looked up) Sentrin-specific protease 1: MDDIADRMRMDAGEVTLVNHNSVFKTHLLPQTGFPEDQLSLSDQQILSSRQGHLDRSFTCSTRSAAYNPSYYSDNPSSDSFLGSGDLRTFGQSANGQWRNSTPSSSSSLQKSRNSRSLYLETRKTSSGLSNSFAGKSNHHCHVSAYEKSFPIKPVPSPSWSGSCRRSLLSPKKTQRRHVSTAEETVQEEEREIYRQLLQMVTGKQFTIAKPTTHFPLHLSRCLSSSKNTLKDSLFKNGNSCASQIIGSDTSSSGSASILTNQEQLSHSVYSLSSYTPDVAFGSKDSGTLHHPHHHHSVPHQPDNLAASNTQSEGSDSVILLKVKDSQTPTPSSTFFQAELWIKELTSVYDSRARERLRQIEEQKALALQLQNQRLQEREHSVHDSVELHLRVPLEKEIPVTVVQETQKKGHKLTDSEDEFPEITEEMEKEIKNVFRNGNQDEVLSEAFRLTITRKDIQTLNHLNWLNDEIINFYMNMLMERSKEKGLPSVHAFNTFFFTKLKTAGYQAVKRWTKKVDVFSVDILLVPIHLGVHWCLAVVDFRKKNITYYDSMGGINNEACRILLQYLKQESIDKKRKEFDTNGWQLFSKKSQEIPQQMNGSDCGMFACKYADCITKDRPINFTQQHMPYFRKRMVWEILHRKLL | insensitive to hypoxia |  | 17.6±6.5
